Assay results taken from publication PMC10552185, “Impaired cAMP processivity by phosphodiesterase-protein kinase A complexes in acrodysostosis” (Frontiers in Molecular Biosciences, 2023).
Where a chain is given by its changes, count along the chain named. Numbers in names are those of the source.

Target: T1, cAMP-dependent protein kinase (PKA) type I regulatory subunit isoform α, full-length wild type (UniProt P00514 1-380)
T1 construct: PKA type I regulatory subunit α (RIα), full length, UniProtKB P00514 used for the HDXMS peptide search; Cloned in pRSETA; for FP loaded with 8-fl-cAMP or 2'-fl-cAMP; also called RIα; WT RIα
T1 sequence (P00514 whole entry, canonical isoform): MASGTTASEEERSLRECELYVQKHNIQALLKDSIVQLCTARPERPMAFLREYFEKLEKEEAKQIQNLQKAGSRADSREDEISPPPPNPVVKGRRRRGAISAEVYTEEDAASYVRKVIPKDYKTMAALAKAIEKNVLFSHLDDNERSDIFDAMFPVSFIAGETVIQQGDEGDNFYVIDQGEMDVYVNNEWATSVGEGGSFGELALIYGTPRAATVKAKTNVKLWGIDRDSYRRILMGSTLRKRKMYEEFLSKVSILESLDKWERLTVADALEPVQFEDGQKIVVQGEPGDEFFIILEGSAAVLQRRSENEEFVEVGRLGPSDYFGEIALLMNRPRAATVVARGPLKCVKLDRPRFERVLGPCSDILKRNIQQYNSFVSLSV
Assay: fluorescence polarisation; about 1 uM RIα preloaded with 8-fl-cAMP or 2'-fl-cAMP (excess ligand removed by SEC), about 2 uM PDE8 added; polarisation followed over 120 min; 96-well plates; excess cAMP (25 or 100 uM) added at 20 min in some runs
Settings: both partners purified

B1: catalytic domain of wild-type PDE8A1 (472-829) (domain or fragment, UniProt O60658-1 472-829, looked up)
chain: SSNIITPISLDDVPPRIARAMENEEYWDFDIFELEAATHNRPLIYLGLKMFARFGICEFLHCSESTLRSWLQIIEANYHSSNPYHNSTHSADVLHATAYFLSKERIKETLDPIDEVAALIAATIHDVDHPGRTNSFLCNAGSELAILYNDTAVLESHHAALAFQLTTGDDKCNIFKNMERNDYRTLRQGIIDMVLATEMTKHFEHVNKFVNSINKPLATLEENGETDKNQEVINTMLRTPENRTLIKRMLIKCADVSNPCRPLQYCIEWAARISEEYFSQTDEEKQQGLPVVMPVFDRNTCSIPKSQISFIDYFITDMFDAWDAFVDLPDLMQHLDNNFKYWKGLDEMKLRNLRPPPE
notes: PDE8A catalytic domain, residues 472-829 of PDE8A1, UniProtKB O60658 used for the HDXMS peptide search; Cloned in pET-Duet1; also called PDE8 WT; WT PDE8
binding result: binds

B2: PDE8A catalytic domain (472-829) T690P (domain or fragment, UniProt O60658 472-829, looked up)
chain: B1 chain with T219P
notes: PDE8A catalytic domain, residues 472-829 of PDE8A1, UniProtKB O60658, with T690P (made as the equivalent of the acrodysostosis mutation PDE4D T594P); Cloned in pET-Duet1; also called PDE8 T690P; PDE8c T690P
binding result: binds
